From publication doi:10.1101/2025.04.22.649924 come the findings set out here.

This assay deals with ectodomain of APP^695. Nature of the assay: SPR. For orientation: In SPR one partner is held on a chip, and binding of the other changes the refractive index at the surface.

Turning to “SORLA^N1358S ectodomain (soluble mutant SORLA ectodomain, hexa-His-tagged) (from UniProt Q92673 82-2137) (domain or fragment)”, the SPR sensorgram peak (response units) is 1650 RU.
For the substance “SORLA^WT ectodomain (soluble wildtype SORLA ectodomain, hexa-His-tagged) (from UniProt Q92673 82-2137) (domain or fragment)”, the SPR sensorgram peak (response units) worked out at 1750 RU.
